Assay [1] concerns the target GST-FBXL5 (pGEX-6P-1) (UniProt Q9UKA1). Kind of assay: pull-down; GST or GST-FBXL5 protein on glutathione-sepharose with extracts from transfected HEK293T cells; western blot. (Immunoblotting shows a protein as a band on a membrane.)
For assay [2], the target named is T1, 3xFlag-FBXL5 (baculovirus) (UniProt Q9UKA1 1-691).
T1 construct: FBXL5; pFastBac1 3xFlag-FBXL5 provided by Dr Bruick; source: also co-infected with 6xHis-Skp1, HA-Cullin1 and Rbx1 for the SCF^FBXL5 complex; not shown: 3xFlag, N-terminal, kept
T1 sequence (looked up): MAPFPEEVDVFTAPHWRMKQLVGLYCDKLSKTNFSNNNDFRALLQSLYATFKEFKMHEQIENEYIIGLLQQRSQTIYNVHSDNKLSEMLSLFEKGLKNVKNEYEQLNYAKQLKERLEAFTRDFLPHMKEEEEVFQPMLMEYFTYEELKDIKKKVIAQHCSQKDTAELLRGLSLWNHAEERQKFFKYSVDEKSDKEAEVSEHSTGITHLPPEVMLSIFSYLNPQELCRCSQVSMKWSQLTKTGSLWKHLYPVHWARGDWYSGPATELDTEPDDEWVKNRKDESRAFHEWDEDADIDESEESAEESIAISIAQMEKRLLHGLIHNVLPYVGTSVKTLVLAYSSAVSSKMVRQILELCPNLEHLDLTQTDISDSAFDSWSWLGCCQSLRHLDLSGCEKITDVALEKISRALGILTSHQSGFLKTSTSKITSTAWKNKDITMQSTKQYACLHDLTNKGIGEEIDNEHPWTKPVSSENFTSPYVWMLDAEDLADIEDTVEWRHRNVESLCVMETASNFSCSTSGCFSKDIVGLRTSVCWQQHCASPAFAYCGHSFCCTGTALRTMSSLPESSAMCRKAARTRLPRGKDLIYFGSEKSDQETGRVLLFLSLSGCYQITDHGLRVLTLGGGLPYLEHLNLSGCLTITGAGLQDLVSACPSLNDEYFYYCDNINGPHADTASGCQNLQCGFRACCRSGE
The assay is described as follows: pull-down; 0.2 pmol 3xFlag-FBXL5 incubated with 2.5 pmol GST or GST-Snail1 as baits on glutathione-sepharose; western blot. The conditions noted are these: both partners purified.

These results are taken from publication PMC3902928, “Nuclear ubiquitination by FBXL5 modulates Snail1 DNA binding and stability” (Nucleic Acids Research, 2013).

Regarding “GFP-Snail1CT ΔZnF1 (from UniProt Q02085 181-264) (domain or fragment)”, the decrease of binding against the full C-terminal domain in assay [1] was found to be 45%. Molecule “GFP-Snail1CT ΔZnF1-2 (from UniProt Q02085 209-264) (domain or fragment)” showed a decrease of binding against the full C-terminal domain in assay [1] of 80%. Same read-out and setting: for “GFP-Snail1CT ΔZnF3-4 (from UniProt Q02085 152-208) (domain or fragment)” the value was > 50%.

B1: GST-Snail1-HA (baculovirus) (natural protein, UniProt Q02085 1-264, looked up)
chain: MPRSFLVRKPSDPRRKPNYSELQDACVEFTFQQPYDQAHLLAAIPPPEVLNPAASLPTLIWDSLLVPQVRPVAWATLPLRESPKAVELTSLSDEDSGKSSQPPSPPSPAPSSFSSTSASSLEAEAFIAFPGLGQLPKQLARLSVAKDPQSRKIFNCKYCNKEYLSLGALKMHIRSHTLPCVCTTCGKAFSRPWLLQGHVRTHTGEKPFSCSHCNRAFADRSNLRAHLQTHSDVKRYQCQACARTFSRMSLLHKHQESGCSGGPR
notes: Snail1; insert subcloned from pcDNA3-Snail1-HA through pEBG-2T into pFastBac1; source: Sf9, baculovirus-infected, purified; not shown: GST, N-terminal, kept
Take B1: the binding result in assay [2] is reported as “binds”.
